# Legend:
# [1] = target: N-terminal 6xHis-tagged HsCPAP^897−1338 (human) (UniProt Q9HC77); experiment: SEC + other: negative-stain electron microscopy (single particle, 3D map); SEC (Superdex 200 10/300) peak fraction at an apparent MW of ~208 kDa, buffer H-300 (300 mM NaCl), 4°C; barrel-like particles, 23 Å map; putative tetramer (dimer of dimers)
# [2] = target: N-terminal 6xHis-tagged HsCPAP^897−1338 (human) (UniProt Q9HC77); experiment: SEC + other: negative-stain electron microscopy (single particle, 3D map); SEC (Superdex 200 10/300) fraction at an apparent MW of ~108 kDa, buffer H-300 (300 mM NaCl), 4°C; toroidal particles, 20 Å map from 4,587 particles; monomers to putative dimer
substance,measurement,setting,value
N-terminal 6xHis-tagged HsCPAP^897−1338 (from UniProt Q9HC77 897-1338) (domain or fragment),stoichiometry N,[1],4
same,stoichiometry N,[2],2

# Source: article PMC5366329
